From publication PMC9228748, “The Denaturant- and Mutation-Induced Disassembly of Pseudomonas aeruginosa Hexameric Hfq Y55W Mutant” (Molecules, 2022) come the findings set out here.

Values joined by “and” are separate entries in the source; they are usually repeats but may differ in a detail not shown here. Identical values can stand only once.

Data set [1] deals with the molecule itself. Kind of data set: dynamic light scattering; pH 1.4, 100 µM protein (monomer), 25 °C.
Data set [2] concerns the molecule itself. The experiment in a line: crystal structure; hanging drop vapor diffusion at 25 °C; 7% PEG 2000 MME, 2% MPD, 50 mM Tris-HCl pH 6.5; asymmetric part holds three subunits, hexamer by crystallographic symmetry.

B1: Pseudomonas aeruginosa Hfq Y55W mutant (natural protein)
chain: MSKGHSLQDPYLNTLRKERVPVSIYLVNGIKLQGQIESFDQFVILLKNTVSQMVWKHAISTVVPSRPVRLPSGDQPAEPGNA
notes: also called Y55W (hexamer); Pae Hfq Y55W
For B1, the “stoichiometry N” value in data set [1] was 3 and 2; in data set [2], 6.

What is called stoichiometry N is a count of units in the complex or per binding partner.
